Data set [1] addresses T1, alpha-thrombin (Homo sapiens, UniProt P00734;P00734 P00734:328-363,P00734:364-622). Briefly: detector in two-step sandwich on nylon membrane with immobilized DT-aptamer, room temperature, 100 uM heparin.
The target in data set [2] is T1, alpha-thrombin. In words: flow; reporter with DT-beads (FIG. 2 legend cites SEQ 12 but Table 1 gives SEQ 7); 50 mM Tris pH 7.5, 100 mM NaCl, 2 mM MgCl2, 37 C.
The target in data set [3] is T1, alpha-thrombin. In words: flow; reporter with MC-beads, 30 nM thrombin, 37 C; values in figure only.

B1: MC-DIMR-F (ssDNA)
DNA: GTAGTCACTGGTTGGTGAGGTTGGGTGACTACTTTTTTCATCAGTGGGTTGGAGTGGTTGGTCACTGATG
modifications: dimer; second half is the MC sequence in reverse order, structure drawn as image only
Turning to B1, the binding result in data set [1] is “binds”.
On to TTTTTTGTAGTCACTGGTTGGTGAGGTTGGGTGACTAC (ssDNA) [MC-5'-LNK-F], for which, in data set [2], the binding result is listed as “binds”.
With TTTTTGCTTAGTCCGTGGTAGGGCAGGTTGGGGTGACTAAGC (ssDNA) [DT-5'-LNK-F], the binding result in data set [3] is given as “binds”.

For the origin of these results see US20020037506, “Aptamer based two-site binding assay” (published 2002).
